Experiment: yeast display, Sf9 membrane polyspecificity reagent, FACS + sequencing; frameworks hold sequencing errors
In short: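 In a synthetic yeast display library (Saccharomyces cerevisiae BJ5465), nanobody expression was induced with galactose for 36–48 hours. FACS gates were set low and high (top ~1%) using anti-HA fluorescence for expression and streptavidin fluorescence for binding of the Sf9 membrane reagent. Each polyreactivity label is drawn from the gate of origin.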
In the case of “QVQLVESGGGLVQAGGSLRLSCDASGSIFPLYAMGWYRQAPGKERELVAAITSGTSTNYADSVKGRFTISRDNAKNTVYLQMNSLKPEDTAVYYCAADVYTRFWRVYRFDYWGQGTQVTVSS”, the “polyreactivity (PSR sort gate)” value is reported as “low polyreactivity”.
With “QVQLVESGGGLVQAGGSLRLSCAASGSTFDLYAMGWYRQATGKERELVAAISRSGGSTYYADSVKGRFTISRDNEKNTVYLQMNSLKPDDTAVYYCNARWPLGVSRGGMGYWGQGTQVTVSS” the “polyreactivity (PSR sort gate)” value was “high polyreactivity”.
For “QVQLVESGGGLVQAGGSLRLSCAASGSTFRYYAMGWSRQAPGKERELVAAISRSGTSTYYADSVKGRFTISRDNAKNTVYLQMNSLKPEDTAVYYCAADWHSKIGKGYDYWGQGTQVTVSS”, the “polyreactivity (PSR sort gate)” value was “high polyreactivity”.
With “QVQLVESGGGLVQAGGSLRLSCAASGRTFRYYAMGWYRPATGKERELVADISSTGRTYYADSVKGRFTISRDNAKNTVYLQMNSLKPEDTAVYYCNADYFFEFDYWGQGTQVTVSS” the “polyreactivity (PSR sort gate)” value was “low polyreactivity”.
With “QVQLVESGGGLVQAGGSHRLSCAASGRTFWYYTMGWYRQAPGKERELVAAINWRGGTTYYADSVKGRFTISRDNAMNTVYLQMNSLKPEDTAVYYCAATHWAYSRVPYDYWGQGTQVTVSS” the “polyreactivity (PSR sort gate)” value was “high polyreactivity”.
In the case of “QVQLVESGGGLDQAGGSLRLSCAASGNIFRIYAMGWYRQAPGKERELVATITKRGGSTYYADSVKGRFTISRDNAKNTVYLQMNSLKPEDTAVNYCNAVTKLWYDYDYWGQGTQGTVSS”, the “polyreactivity (PSR sort gate)” value is reported as “high polyreactivity”.
In the case of “QVQLVESGGGLVQAGGSLRLSCAASGGIFVSYAMGLYRQAPGKERELVARINSVDGTNYADSVKGRFTISRDNAKNTVYLQMNSLKPEDTAVYYCAVRSPVLASDYGYYFLRDYWGQGTQVTVSS”, the “polyreactivity (PSR sort gate)” value is reported as “low polyreactivity”.
For “QVQLVESVGGLVQAGGSLRLSCAASGSTFYENTMGWYRQAPGKERELVAAISRSGVSTYYADSVKGRFTISRDNAKNTVYLQMNSLKPQDTAVYYCAAIVYRRYDYWGQGTQVTVSS”, the “polyreactivity (PSR sort gate)” value was “high polyreactivity”.
With “QVQLVESGGGLVQAGGSLRLSCAAYRFIFATNTMGCYRQAPGKETELVAASSTYYADSVNGRFTISRDNAKNTVYLQMNSLKPEDNAVYYCNADRDSYIGFVDWAGEYWGQGTQVTVSS” the “polyreactivity (PSR sort gate)” value was “low polyreactivity”.
In the case of “QVQLVESGRGLVQAGGSLRLSCAASGLILGVNVMGWYRQAPGKERELVAAISGGGRTYYADSVKGRFTISRDNAKNTVYLQMNSLKPDDTAVYYCATVRRRLSLTYDYWGQVTQVTVSS”, the “polyreactivity (PSR sort gate)” value is reported as “high polyreactivity”.
For “QVQLVESGGGLVQAGGSLRLSCAASGLIFAEYAMGWYRQAPGKERELVARITSAGSTDYADSVKGRFTISRDNAKNTVYLQMNSLKPEDTAVYYCAARYYSQDKNASTASDFDYWGQGTQVTVSS”, the “polyreactivity (PSR sort gate)” value was “low polyreactivity”.
With “QVQLVESGGGLVQAGGSLRLSCAASGRIFSGYAMGWYRQAPGKERELVAAIYGGGSTNYADSVKGRFTISRDNAKNTVYLQMNSLKPEDTAVYYCATQYWHYPYWLYKYDYWGQGTQVTVSS” the “polyreactivity (PSR sort gate)” value was “low polyreactivity”.
With “QVQLVESGGGLVQAGGSLRLSCAASGRIFSSYDMGWYRQAPGKEPELVAAISRSGARTYYADSVKGRFTISRDNAKNTVYLQMNSLKPEDTAVYYCAAEFRSWGGYRYRFNYWGQGTQVTVSS” the “polyreactivity (PSR sort gate)” value was “high polyreactivity”.
In the case of “QVQLVESGGCLVQAGGSLRLSCAASGSIFPPYAMGWYIPAPGKERELVAAISRRGGSTYYADSVKGRFTISRDNAKNTVYLQMNSLKPEDTAVYYCAARGGQMEYWGQGTQVTVSS”, the “polyreactivity (PSR sort gate)” value is reported as “high polyreactivity”.
With “QVQLVVSGGGLVQAGCTHRISCAPSGRISKLYAMGWSIPAPGKERELVAAISWRGGSTYYADSVKGRFTISRDNAKITVYLQLYSLKPEDTAVYFCNKAYPADDDYWGQGTQVSVSS” the “polyreactivity (PSR sort gate)” value was “low polyreactivity”.
For “QVQLVESGGGLVQAGGSLRLSCASSGFIFFSYAMGWYRQAPGKERELVASISRSGGTTYYADSVKGRFTISRDNAKNTVYLQMNSLKPEDTAVYYCAARTYSYYSRDYWGQVTQVTVSS”, the “polyreactivity (PSR sort gate)” value was “high polyreactivity”.
With “QVQLVESGGGLVQAGGSLRLSCAASGSTFRINAMGWYRLAPGKEREFVAAIRWNGGSTNYADSVKGRFTISRDNAKNTVYVQMNSLKPEDTAVYYCAADGYIGWRHIYEYWGQGTQVTVSS” the “polyreactivity (PSR sort gate)” value was “low polyreactivity”.
With “QVQLVESGGGLVQAGGSLRLICAASGRIFGYYTMGRYRQAPGKERELVADNNRDGSTYADSVKGRFTISRDNAKNSVYIQMNSLKPEDTAVYYCIAQYDSAYGLGFFIGYFSQYDYWGQGTQVTVSS” the “polyreactivity (PSR sort gate)” value was “low polyreactivity”.
With “QVQLVESGGGLVQAGGSLRLICAASGSTFVSNAMGWYRQAPGKERELVAAITVSGGRTYYADSVKGRFTISRDNAKNTVYLQMNSLKPEDTAVYYCAAQIYGKYDYWGQGTQVTVSS” the “polyreactivity (PSR sort gate)” value was “low polyreactivity”.
For “QVQLVESGGGLVQAGGSLRLSCAASGFIFYKYAMGWYRQAPGKERELVAAITRSGGSTFYADSVKGRFTISRDNAKNTVYLQMNSLKPEDTAVYYCAADAIVQVTPRPRRYDYWGQGTQVTVSS”, the “polyreactivity (PSR sort gate)” value was “high polyreactivity”.
For “QVQLVESGGGLVQAGGSLRLSCAASGFIFTLYAMGWYRKAPGKEREFVAAISWSDGSTTYADSVKGRFTISRDNAKNTVYLQMNSLKPEDTAVYYCNTSYIIWYDSWGQGTQVTVSS”, the “polyreactivity (PSR sort gate)” value was “low polyreactivity”.
In the case of “QVQRVESGGGLVQAGGSLLLSCAASGRIFYRSAMGWYRQAPGKESELVASISWSGGSTYYADSVKGRFTISRDNAKNTVYLQMNSLKPEDTAVYYCAARSYRYSYRYRAFDYWGQGTQVTVSS”, the “polyreactivity (PSR sort gate)” value is reported as “high polyreactivity”.
With “QVQLVESGGGLVQAGGSLRLSCAASGLIFRSNAMGWYRQAPGKERELVAAISRNGQSTYYADSVKGRFTISRDNAKYTVYLQMNSLKPEDTAVFYCAARSRDKYDYWGQGTEVTVSS” the “polyreactivity (PSR sort gate)” value was “high polyreactivity”.
In the case of “QVQLVESGGGLVQAGGSLRLSCAASGRIFKYNAMGWYRQAPGKERELVAAISWTGVSTHYADSVKGRFTISRDNAKNTVYLQMNSLKPEDTAVYYCAARVGRGVYYHWRDYWGQGTQVTVSS”, the “polyreactivity (PSR sort gate)” value is reported as “low polyreactivity”.
With “QVQLVESGGGLVQAGGSLRLSCAASGSILYANAMGWYRQAPGKERELVAAISARGTSTYYADSVKGRFTISRDNAKNTVYLQMNSLKPEDTAVYYCATGRKNAAQRWGYYYWGQGTQVTVSS” the “polyreactivity (PSR sort gate)” value was “high polyreactivity”.
In the case of “QVQLEDSGGGLVQAGGSLRLSCAASGSTFNQYAMGWYRQATGKERELVAAITTSGARTYYADSVKGRFTISRDNAKNTVYLQMNSLKPEDTAVYYCNAGYFSYRYRYGYDYWGLGTQVTVSS”, the “polyreactivity (PSR sort gate)” value is reported as “high polyreactivity”.
For “QVQLVESGGGLVQAGGSLRLSCAASGFTFTRNAMGLYRQAPGKERELFAAISKRGGTTYYADSVKGRFSISRDYAKNTVYLQMNSLKPEDTAVYYCAKDGGITGGYWGQGSQVTVSS”, the “polyreactivity (PSR sort gate)” value was “high polyreactivity”.
With “QVQLVESGGGLVHAGGSLRLSCAASGLIFRAYAMGWYRQAPGKERELVAAITSSSGSTYYADSVKGRFTISRDIAKNTVYLEMNSLKPEDTAVSYCNAYSTFGWYDYWGQGTQVTVSS” the “polyreactivity (PSR sort gate)” value was “low polyreactivity”.
For “QVQLVESGGGLVQAGGSLRLSCAASGRTFAAYAMGWYRQAPGKERELVAAIRRGGTTNYADSVKGRFTISRDNAKNTVYLQMNSLKPEDTAVYYCAALAPYSRSWVTYDYWGQGTQVTVSS”, the “polyreactivity (PSR sort gate)” value was “low polyreactivity”.
For “QVQLVESGGGLVQAGGSLRLSCAASGFIFRYYAMGWYRPAPGKERELVAAISASGGSTYYADSVKGRCTISRDNAKNSDYLLMNSLKPEDTAVYYCATYYQKYRSEYWGQGTQVTVSS”, the “polyreactivity (PSR sort gate)” value was “high polyreactivity”.
With “QVQLVESGGGLVQAGGSLRLSCAHSGSISSRYAMGWYRQAPGKERELVARITRSGGSTYYADSVKGRFTISRDNAKNTVYLQMNRLKPEDTAVYYCNKRGTEIGYDYWGQGTQVTVLS” the “polyreactivity (PSR sort gate)” value was “low polyreactivity”.
In the case of “QVQLVESGGGLVQAGGSLRLSCAASGSIYPFYAMGWYRQAPGKERELVATISSGDSTHYADSVKGRFTISRDNAKNTVYEQMNSLKPEDTAVYYCNRRNKAQRFFDLGYWGQGTQVTVSS”, the “polyreactivity (PSR sort gate)” value is reported as “low polyreactivity”.
In the case of “QVQLGESGGGLVQAGGSLRLSCAASGLIFVWNDMGWYRQAPGKEGELVADISDGSTYADSVKGRFTISRDNAKNTVYVQMNRLQPEHTAVYYCNKDNHDVELPVEFEYWGQGTQVTVSS”, the “polyreactivity (PSR sort gate)” value is reported as “high polyreactivity”.
In the case of “QVQLVESGGGIVQAGGSLRLSCAASYYDMGWYRQAHGKERELVASISSGGSTNYADSVKGRFTISRDNAKNTVYLQMNSLKPEVTAVYYCAAVVADGVWVKIADEYWGQGTQVTVSS”, the “polyreactivity (PSR sort gate)” value is reported as “low polyreactivity”.
For “QVQLVESGGGLVQAGGSLRLSCAASGIIFSYNAMGWYRQAPGKERELVAAINSSGGSTNYADSVKGRFTISRDNAKNTVYLQMNSLKPEDTAVYYCAARDATYYGVWRYYGIDDYWGQGTQVTVSS”, the “polyreactivity (PSR sort gate)” value was “low polyreactivity”.
With “QVQLVESGGGLVQAGGSLRLSCAASGSIFSQYAMGCYREAPGKERELVAAISSSGDSTNYADSVKGRFTISRDNAKNTVYLQMNSLKPEDTGVYDCAADPYYFYIWYWWPSFDYWGQGTQVTVSS” the “polyreactivity (PSR sort gate)” value was “low polyreactivity”.
In the case of “QVQLVESGGGLVQAGGSLRLSCAASGSTFYYNAMGWYRQAPGKERELVADISWRGGITYYADSVKGRFTISRDNAKNTVYLQMNSLKPEDTAVYYCNADAESFDDGYWGQGTQVTVSS”, the “polyreactivity (PSR sort gate)” value is reported as “low polyreactivity”.
For “QVQLQESGGGLVQAGGSLRLSCAASGNISVTGFMGWYRQATGKERELVASIGIGGTTYYADSVKGRFSISRDNAKNTVYLQMNSLKPEDTAVYYCAARYLYYAYSYWGQGTQVTVSS”, the “polyreactivity (PSR sort gate)” value was “low polyreactivity”.
In the case of “QVQLVESGGGLVQAGGSLRLSCAASGRIFVPYAMGWYRQAPGKERELVAGISWSGGSTYYADSVKGRFTISRDNAKNTVYLQMNNLKPEDTPVYYCAAAKRRRPFDYWGQGTQVTVSS”, the “polyreactivity (PSR sort gate)” value is reported as “high polyreactivity”.
With “QVQLVESGGGLVQAGGSLRLSCAASGSIFVGYDMGWYRQAPGKEREWVAAITSSGGGSTYYADSVKGRFTISRDNAKNTVYLQMNSLKPEDTAVYYCAARTSLWWFLKYDYWGQGTQVTVSS” the “polyreactivity (PSR sort gate)” value was “low polyreactivity”.
With “QVQLVESGGGLVQAGGSLRLSCAASGRIFKTYAMGWYRQAPGKERELVAAITASGGRTYDADSVKGRFTISRDNAKNTVYLQMNSLTPEDTAVYYSAAPLLRDLRSPYSYNYWGQGTQVTVSS” the “polyreactivity (PSR sort gate)” value was “low polyreactivity”.
With “QVQLVESGGGLVQAGGSLRLSCAASGRTFATYAMGWYRQAPGKEREFVAVIDGSGGSTYYADSVKGRFTISRDNAKNTVYLQMNSLKPEDTAVYYCAATSRRKVPNIRKSYGYWGQGTQVTVSS” the “polyreactivity (PSR sort gate)” value was “high polyreactivity”.
With “QVQLVESGGGLVQAGGSLRLSCAASGFIILINVMGGYRQAPGNERELVAVITGGGTTNYADSVKGRFTISRDNAKNTVYLQMYSLKPEDTAVYYCAADWIVVSEFGLDYHMDYWGQGSQVTVSS” the “polyreactivity (PSR sort gate)” value was “low polyreactivity”.

Reference: the nanobody polyreactivity screen of Harvey et al. (2022)
